B1: GLI1(234–388) (domain or fragment, human, UniProt P08151 234-388, looked up)
chain: ETDCRWDGCSQEFDSQEQLVHHINSEHIHGERKEFVCHWGGCSRELRPFKAQYMLVVHMRRHTGEKPHKCTFEGCRKSYSRLENLKTHLRSHTGEKPYMCEHEGCSKAFSNASDRAKHQNRTHSNEKPYVCKLPGCTKRYTDPSSLRKHVKTVHG
notes: a few residues of the TEV site and linker may remain at the N-terminus (surmised); PDB 2GLI is the cited structure of GLI1 Zif1-5 with DNA; also called Zif truncation with 5 Zif motifs; Zif1-5; not shown: His6, N-terminal, cleaved; SUMO (yeast SMT3), N-terminal, cleaved
B2: GLI1(234–326) (domain or fragment, human, UniProt P08151 234-326, looked up)
chain: ETDCRWDGCSQEFDSQEQLVHHINSEHIHGERKEFVCHWGGCSRELRPFKAQYMLVVHMRRHTGEKPHKCTFEGCRKSYSRLENLKTHLRSHT
notes: a few residues of the TEV site and linker may remain at the N-terminus (surmised); also called Zif truncation with 3 Zif motifs; not shown: His6, N-terminal, cleaved; SUMO (yeast SMT3), N-terminal, cleaved
B3: GLI1(234–358) (domain or fragment)
chain: not shown
notes: a few residues of the TEV site and linker may remain at the N-terminus (surmised); also called Zif truncation with 4 Zif motifs; not shown: His6, N-terminal, cleaved; SUMO (yeast SMT3), N-terminal, cleaved
B4: Human GLI1 truncation containing zinc finger motif 1 and 2 (residue 234–302) (domain or fragment)
chain: ETDCRWDGCSQEFDSQEQLVHHINSEHIHGERKEFVCHWGGCSRELRPFKAQYMLVVHMRRHTGEKPHK
notes: TEV protease was used to remove His-SUMO; Two zinc ions per chain; also called GLI1 Zif1-2; source: E. coli Rosetta pLysS, purified (Ni-NTA, TEV cleavage, glutathione column, HiTrap Q HP, Superdex 75); not shown: His6, N-terminal, cleaved; SUMO (yeast SMT3), N-terminal, cleaved

Experiments:
[1] = molecular target: the molecule itself; test: SEC; Superdex 75 during purification; 20 mM HEPES pH 7.6, 500 mM NaCl, 0.1 mM TCEP; elution compared with standard proteins
[2] = molecular target: the molecule itself; test: crystal structure; apo GLI1(234–302), no DNA; sitting drop, 29–32% PEG3350, 0.1 M Bis-Tris pH 6.5; two molecules in the asymmetric unit, space group P65, 2.05 Å

Protein	stoichiometry N [1]	binding result [2]
B1	2	–
B2	2	–
B3	2	–
B4	–	binds

From publication PMC11677393 (International Journal of Molecular Sciences, 2024)
